The target in experiment [1] is T1, THAP1-N2 deletion mutant (amino acids 1-166) (human, UniProt Q9NVV9 1-166).
T1 construct: Gal4 fusion, in vitro translation product or GFP fusion according to assay
T1 sequence: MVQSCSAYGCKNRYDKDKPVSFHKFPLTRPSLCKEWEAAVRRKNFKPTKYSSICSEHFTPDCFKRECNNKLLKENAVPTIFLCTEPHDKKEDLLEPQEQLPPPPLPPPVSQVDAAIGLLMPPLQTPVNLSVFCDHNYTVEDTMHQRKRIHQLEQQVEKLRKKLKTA
Description: yeast two-hybrid.

Experiment [2] has as its target T2, THAP1-N3 deletion mutant (amino acids 1-192) (human, UniProt Q9NVV9 1-192).
T2 construct: Gal4 fusion, in vitro translation product or GFP fusion according to assay
T2 sequence: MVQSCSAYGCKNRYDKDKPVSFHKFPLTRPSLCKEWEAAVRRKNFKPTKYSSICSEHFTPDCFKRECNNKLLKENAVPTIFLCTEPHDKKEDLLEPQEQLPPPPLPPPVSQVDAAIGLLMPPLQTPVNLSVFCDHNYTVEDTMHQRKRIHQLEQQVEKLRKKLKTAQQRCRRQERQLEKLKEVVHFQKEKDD
Description: yeast two-hybrid.

Experiment [3] addresses T3, THAP1-C1 deletion mutant (amino acids 90-213) (human, UniProt Q9NVV9 90-213).
T3 construct: Gal4 fusion, in vitro translation product or GFP fusion according to assay; also called THAP1-CL; THAP1ΔTHAP
T3 sequence: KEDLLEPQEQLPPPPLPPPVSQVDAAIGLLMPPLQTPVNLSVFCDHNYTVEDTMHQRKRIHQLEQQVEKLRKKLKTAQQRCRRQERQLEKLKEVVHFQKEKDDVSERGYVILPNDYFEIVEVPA
As to the kind of experiment: yeast two-hybrid.

For experiment [4], the target named is T4, THAP1ΔQRCRR mutant (deletion of residues 168-172) (human, UniProt Q9NVV9 1-213).
T4 sequence: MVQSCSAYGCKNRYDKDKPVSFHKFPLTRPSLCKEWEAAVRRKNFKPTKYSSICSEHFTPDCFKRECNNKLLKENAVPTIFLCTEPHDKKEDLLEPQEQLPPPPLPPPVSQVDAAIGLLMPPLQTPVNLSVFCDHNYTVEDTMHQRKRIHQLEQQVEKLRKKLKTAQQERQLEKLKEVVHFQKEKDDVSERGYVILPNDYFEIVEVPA
As to the kind of experiment: yeast two-hybrid, SLC/CCL21 bait.

Experiment [5] addresses T5, GST (glutathione S-transferase) control protein (UniProt P08515 1-218 = GST).
T5 construct: Negative control in GST pull-down assays; also called GST beads; GST alone
Description: GST pull-down, 35S-labelled in vitro translated SLC/CCL21. Here is the method: To confirm the interaction observed in yeast two-hybrid system, we performed in vitro GST pull down assays. THAP1, expressed as a GST-tagged fusion protein and immobilized on glutathione sepharose, was incubated with radiolabeled in vitro translated SLC/CCL21.

Experiment [6] has as its target T6, human THAP1 (THanatos-Associated-Protein-1), full length (human, UniProt Q9NVV9 1-213).
T6 construct: these tags are not written into the chain; also called hTHAP1; THAP1 wild type
T6 sequence: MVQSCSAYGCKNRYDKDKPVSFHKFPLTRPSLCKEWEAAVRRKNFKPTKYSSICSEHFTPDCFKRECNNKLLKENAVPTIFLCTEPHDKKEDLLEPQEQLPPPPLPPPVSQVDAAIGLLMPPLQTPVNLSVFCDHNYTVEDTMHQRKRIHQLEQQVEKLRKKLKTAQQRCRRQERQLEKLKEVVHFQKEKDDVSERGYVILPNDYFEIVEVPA
Description: yeast two-hybrid, chemokine bait and THAP1 prey.

The target in experiment [7] is T7, chemokine CXCL2 (UniProt P19875 1-107, limits assumed).
T7 construct: 35S-labelled in vitro translation product
T7 sequence (looked up): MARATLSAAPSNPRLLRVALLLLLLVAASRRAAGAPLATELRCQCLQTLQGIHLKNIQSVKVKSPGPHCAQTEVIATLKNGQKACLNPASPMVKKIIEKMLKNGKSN
Description: GST pull-down, 35S-labelled in vitro translated molecule.

T5 sequence (P08515 whole entry): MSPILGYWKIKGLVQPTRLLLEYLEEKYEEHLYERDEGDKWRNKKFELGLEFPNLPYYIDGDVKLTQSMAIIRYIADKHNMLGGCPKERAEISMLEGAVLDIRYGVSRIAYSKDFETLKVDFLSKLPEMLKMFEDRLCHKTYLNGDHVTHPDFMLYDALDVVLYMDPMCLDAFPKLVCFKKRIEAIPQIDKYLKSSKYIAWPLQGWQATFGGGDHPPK

B1: human chemokine SLC/CCL21, mature form (amino acids 24-134) (ligand)
chain: SDGGAQDCCLKYSQRKIPAKVVRSYRKQEPSLGCSIPAILFLPRKRSQAELCADPKELWVQQLMQHLDKTPSPQKPAQGCRKDRGASKTGKKGKGSKGCKRTERSQTPKGP
notes: GenBank NP-002980; Used as Gal4 fusion in two-hybrid and as 35S-labelled in vitro translation product in pull-downs; also called SLC/6Ckine; SLC/CCL21 wild type
In the case of B1, the binding result in experiment [1] was “no binding”; in experiment [2], “no binding”; in experiment [3], “binds”; in experiment [4], “no binding”; in experiment [5], “no binding”; in experiment [6] it was “binds”.

B2: GST-THAP3 181-284 (chemokine-binding domain of THAP3) (other)
chain: LPPNAEGHVKQVSPRRPQATEAVGRPTGPAGLRRTPNKQPSDHSYALLDLDSLKKKLFLTLKENEKLRKRLQAQRLVMRRMSSRLRACKGHQGLQARLGPEQQS
notes: not shown: GST (glutathione S-transferase of pGEX2T) and its linker at the N end
On to B2, for which the binding result in experiment [7] was “no binding”.

Values taken from patent US20060270596A1 (CENTRE NATIONAL DE LA RECHERCHE SCIENTIFIQUE CNRS, published 2006).
